Common to all, as to conditions: both partners purified
Assay [1] concerns the target T1, CRL2^FEM1B complex with FEM1B^F549S, unneddylated (human, UniProt Q13617 1-745; P62877 1-108; Q15370 1-104; Q15369 17-112; Q9UK73 1-627, F549S).
T1 construct: Cullin-2 (CUL2), human; primers from the start codon to the last codon; RING-box protein 1 (RBX1), human; primers from the start codon to the stop codon; Elongin-B (ELOB), human, residues 1-104; Elongin-C (ELOC), human, residues 17-112; Protein fem-1 homolog B (FEM1B), human, F549S; also called CRL2FEM1B-F549S; source: CUL2/RBX1 from SF9 insect cells and mutant FEM1B/ELOB/ELOC from E. coli …
As to the kind of experiment: grating-coupled interferometry; Creoptix WAVE; MBP-BEX2 and FNIP1/FLCN amine-coupled to 4PCP chips; CRL2^FEM1B injected in a 1:3 dilution series from 1 μM in 10 mM HEPES pH 7.5, 150 mM NaCl, 50 μM ZnCl2, 25 °C; 1:1 kinetics model.

For assay [2], the target named is T2, CRL2^FEM1B complex with FEM1B^Y275R/L278R, unneddylated (human, UniProt Q13617 1-745; P62877 1-108; Q15370 1-104; Q15369 17-112; Q9UK73 1-627, Y275R | L278R).
T2 construct: Cullin-2 (CUL2), human; primers from the start codon to the last codon; RING-box protein 1 (RBX1), human; primers from the start codon to the stop codon; Elongin-B (ELOB), human, residues 1-104; Elongin-C (ELOC), human, residues 17-112; Protein fem-1 homolog B (FEM1B), human, Y275R/L278R; also called CRL2FEM1B-Y275R/L278R; CRL2FEM1B-Y275RL278R; source: CUL2/RBX1 from SF9 insect cells and mutant …
The assay is described as above.

Assay [3] concerns the target T3, CRL2^FEM1B complex with FEM1B^F549R, unneddylated (human, UniProt Q13617 1-745; P62877 1-108; Q15370 1-104; Q15369 17-112; Q9UK73 1-627, F549R).
T3 construct: Cullin-2 (CUL2), human; primers from the start codon to the last codon; RING-box protein 1 (RBX1), human; primers from the start codon to the stop codon; Elongin-B (ELOB), human, residues 1-104; Elongin-C (ELOC), human, residues 17-112; Protein fem-1 homolog B (FEM1B), human, F549R; also called CRL2FEM1B-F549R; source: CUL2/RBX1 from SF9 insect cells and mutant FEM1B/ELOB/ELOC from E. coli …
The assay is described as above.

Assay [4] concerns the target T4, CRL2^FEM1B complex with FEM1B^F549T, unneddylated (human, UniProt Q13617 1-745; P62877 1-108; Q15370 1-104; Q15369 17-112; Q9UK73 1-627, F549T).
T4 construct: Cullin-2 (CUL2), human; primers from the start codon to the last codon; RING-box protein 1 (RBX1), human; primers from the start codon to the stop codon; Elongin-B (ELOB), human, residues 1-104; Elongin-C (ELOC), human, residues 17-112; Protein fem-1 homolog B (FEM1B), human, F549T; also called CRL2FEM1B-F549T; source: CUL2/RBX1 from SF9 insect cells and mutant FEM1B/ELOB/ELOC from E. coli …
Described as above.

Assay [5] deals with T5, CRL2^FEM1B complex with FEM1B^Δ546-553 (FEM1B^DEL), unneddylated (human, UniProt Q13617 1-745; P62877 1-108; Q15370 1-104; Q15369 17-112; Q9UK73 1-627, Δ546-553).
T5 construct: Cullin-2 (CUL2), human; primers from the start codon to the last codon; RING-box protein 1 (RBX1), human; primers from the start codon to the stop codon; Elongin-B (ELOB), human, residues 1-104; Elongin-C (ELOC), human, residues 17-112; Protein fem-1 homolog B (FEM1B), human, with residues 546-553 deleted; also called CRL2FEM1B-DEL; source: CUL2/RBX1 from SF9 insect cells and mutant …
The description is as above.

In assay [6] the target is T6, RBX1, as the subunit of CRL2^FEM1B (human, UniProt P62877 1-108).
T6 construct: RING-box protein 1 (RBX1), human; primers RBX1-f/RBX1-r run from the start codon to the stop codon; Seen as a subunit of the complexes m1 and m7 in the cryo-EM structures; source: SF9 insect cells, co-expressed with CUL2, purified; within the reconstituted CRL2^FEM1B complex
T6 sequence (P62877 whole entry): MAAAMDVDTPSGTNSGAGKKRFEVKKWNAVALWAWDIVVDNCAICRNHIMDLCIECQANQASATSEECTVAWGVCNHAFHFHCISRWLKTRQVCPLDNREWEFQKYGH
As to the kind of experiment: cryo-EM structure; neddylated CRL2^FEM1B and FNIP1-FLCN mixed 1:1.2, 1 h at 4 °C, GraFix, 1.38 mg/ml.

B1: FNIP1/FLCN complex (complex, human)
chain 1: MAPTLFQKLFSKRTGLGAPGRDARDPDCGFSWPLPEFDPSQIRLIVYQDCERRGRNVLFDSSVKRRNEDISVSKLGSDAQVKVFGKCCQLKPGGDSSSSLDSSVTSSSDIKDQCLKYQGSRCSSDANMLGEMMFGSVAMSYKGSTLKIHQIRSPPQLMLSKVFTARTGSSICGSLNTLQDSLEFINQDNNTLKADNNTVINGLLGNIGLSQFCSPRRAFSEQGPLRLIRSASFFAVHSNPMDMPGRELNEDRDSGIARSASLSSLLITPFPSPNSSLTRSCASSYQRRWRRSQTTSLENGVFPRWSIEESFNLSDESCGPNPGIVRKKKIAIGVIFSLSKDEDENNKFNEFFFSHFPLFESHMNKLKSAIEQAMKMSRRSADASQRSLAYNRIVDALNEFRTTICNLYTMPRIGEPVWLTMMSGTPEKNHLCYRFMKEFTFLMENASKNQFLPALITAVLTNHLAWVPTVMPNGQPPIKIFLEKHSSQSVDMLAKTHPYNPLWAQLGDLYGAIGSPVRLARTVVVGKRQDMVQRLLYFLTYFIRCSELQETHLLENGEDEAIVMPGTVITTTLEKGEIEESEYVLVTMHRNKSSLLFKESEEIRTPNCNCKYCSHPLLGQNVENISQQEREDIQNSSKELLGISDECQMISPSDCQEENAVDVKQYRDKLRTCFDAKLETVVCTGSVPVDKCALSESGLESTEETWQSEKLLDSDSHTGKAMRSTGMVVEKKPPDKIVPASFSCEAAQTKVTFLIGDSMSPDSDTELRSQAVVDQITRHHTKPLKEERGAIDQHQETKQTTKDQSGESDTQNMVSEEPCELPCWNHSDPESMSLFDEYFNDDSIETRTIDDVPFKTSTDSKDHCCMLEFSKILCTKNNKQNNEFCKCIETVPQDSCKTCFPQQDQRDTLSILVPHGDKESSDKKIAVGTEWDIPRNESSDSALGDSESEDTGHDMTRQVSSYYGGEQEDWAEEDEIPFPGSKLIEVSAVQPNIANFGRSLLGGYCSSYVPDFVLQGIGSDERFRQCLMSDLSHAVQHPVLDEPIAEAVCIIADMDKWTVQVASSQRRVTDNKLGKEVLVSSLVSNLLHSTLQLYKHNLSPNFCVMHLEDRLQELYFKSKMLSEYLRGQMRVHVKELGVVLGIESSDLPLLAAVASTHSPYVAQILL
chain 2: MNAIVALCHFCELHGPRTLFCTEVLHAPLPQGDGNEDSPGQGEQAEEEEGGIQMNSRMRAHSPAEGASVESSSPGPKKSDMCEGCRSLAAGHPGYISHDKETSIKYVSHQHPSHPQLFSIVRQACVRSLSCEVCPGREGPIFFGDEQHGFVFSHTFFIKDSLARGFQRWYSIITIMMDRIYLINSWPFLLGKVRGIIDELQGKALKVFEAEQFGCPQRAQRMNTAFTPFLHQRNGNAARSLTSLTSDDNLWACLHTSFAWLLKACGSRLTEKLLEGAPTEDTLVQMEKLADLEEESESWDNSEAEEEEKAPVLPESTEGRELTQGPAESSSLSGCGSWQPRKLPVFKSLRHMRQVLGAPSFRMLAWHVLMGNQVIWKSRDVDLVQSAFEVLRTMLPVGCVRIIPYSSQYEEAYRCNFLGLSPHVQIPPHVLSSEFAVIVEVHAAARSTLHPVGCEDDQSLSKYEFVVTSGSPVAADRVGPTILNKIEAALTNQNLSVDVVDQCLVCLKEEWMNKVKVLFKFTKVDSRPKEDTQKLLSILGASEEDNVKLLKFWMTGLSKTYKSHLMSTVRSPTASESRN
notes: Folliculin (FLCN), human; Calculated mass of the heterodimer printed as 195.8 kDa; also called FNIP1/FLCN heterodimer; source: HEK293F, BacMam baculovirus, purified (Ni-NTA, Strep Trap, TEV, Superose 6); not shown: mCherry, C-terminal, cleaved; His6, C-terminal, cleaved; 2x Strep-tag, C-terminal, cleaved
With B1, the dissociation constant (Kd) in assay [1] is 17.5 nM; in assay [2] it was 3.13 nM; in assay [3], 8.99 nM; in assay [4], 33.3 nM; in assay [5], 4.72 nM. In addition, in assay [6], the binding result was “binds”.

B2: MBP-BEX2 (natural protein)
chain: MESKEERALNNLIVENVNQENDEKDEKEQVANKGEPLALPLNVSEYCVPRGNRRRFRVRQPILQYRWDIMHRLGEPQARMREENMERIGEEVRQLMEKLREKQLSHSLRAVSTDPPHHDHHDEFCLMP
notes: Protein BEX2, human; source: E. coli BL21(DE3), purified (Ni-NTA, Superdex 200); not shown: MBP, N-terminal, kept
With B2, the Kd in assay [1] was 23 nM; in assay [2], 3.99 nM; in assay [3] it was 14 nM; in assay [4], 109 nM; in assay [5], 6.62 nM.

For orientation: Kd means the concentration at which binding is half-saturated. A low value points to a tighter complex.

The record behind these values is article PMC10943247 (The EMBO Journal, 2024).
